In PMC7954794, “Protein context shapes the specificity of SH3 domain-mediated interactions in vivo” (Nature Communications, 2021):

B1: YPL246C (protein, UniProt Q12270 1-262, looked up)
Rhomboid-type serine protease …: MNWKSYVFPGGHPPAALTTGLVVFLTAIYLLSFIFALREDLSLAPESLFKLQMSRLSLYPLIHLSLPHLLFNVLAIWAPLNLFEETHGTVYTGVFLNLSALFAGILYCLLGKLLYPEALVAGASGWCFTLFAYYSFKESQIRPRTRIFRTDYSIPTLYTPLVLLVAIAVVIPGSSFWGHFFGLCVGYAIGYKESWFNKITPPGWIITKIEKSLDGLIRLIPWGIKYYRDEDIDRTKDYEPLMSTETPLPLHNDNSGTVLGTA
B2: YMR080C (protein, UniProt P30771 1-971, looked up)
ATP-dependent helicase NAM7: MVGSGSHTPYDISNSPSDVNVQPATQLNSTLVEDDDVDNQLFEEAQVTETGFRSPSASDNSCAYCGIDSAKCVIKCNSCKKWFCNTKNGTSSSHIVNHLVLSHHNVVSLHPDSDLGDTVLECYNCGRKNVFLLGFVSAKSEAVVVLLCRIPCAQTKNANWDTDQWQPLIEDRQLLSWVAEQPTEEEKLKARLITPSQISKLEAKWRSNKDATINDIDAPEEQEAIPPLLLRYQDAYEYQRSYGPLIKLEADYDKQLKESQALEHISVSWSLALNNRHLASFTLSTFESNELKVAIGDEMILWYSGMQHPDWEGRGYIVRLPNSFQDTFTLELKPSKTPPPTHLTTGFTAEFIWKGTSYDRMQDALKKFAIDKKSISGYLYYKILGHQVVDISFDVPLPKEFSIPNFAQLNSSQSNAVSHVLQRPLSLIQGPPGTGKTVTSATIVYHLSKIHKDRILVCAPSNVAVDHLAAKLRDLGLKVVRLTAKSREDVESSVSNLALHNLVGRGAKGELKNLLKLKDEVGELSASDTKRFVKLVRKTEAEILNKADVVCCTCVGAGDKRLDTKFRTVLIDESTQASEPECLIPIVKGAKQVILVGDHQQLGPVILERKAADAGLKQSLFERLISLGHVPIRLEVQYRMNPYLSEFPSNMFYEGSLQNGVTIEQRTVPNSKFPWPIRGIPMMFWANYGREEISANGTSFLNRIEAMNCERIITKLFRDGVKPEQIGVITPYEGQRAYILQYMQMNGSLDKDLYIKVEVASVDAFQGREKDYIILSCVRANEQQAIGFLRDPRRLNVGLTRAKYGLVILGNPRSLARNTLWNHLLIHFREKGCLVEGTLDNLQLCTVQLVRPQPRKTERPMNAQFNVESEMGDFPKFQDFDAQSMVSFSGQIGDFGNAFVDNTELSSYINNEYWNFENFKSAFSQKQNRNEIDDRNLYQEEASHLNSNFARELQREEQKHELSKDFSNLGI
B3: YOR229W (protein, UniProt Q12206 1-467, looked up)
Transcriptional modulator WTM2: MAKSKSSQGASGARRKPAPSLYQHISSFKPQFSTRVDDVLHFSKTLTWRSEIIPDKSKGTLTTSLLYSQGSDIYEIDTTLPLKTFYDDDDDDDNDDDDEEGNGKTKSAATPNPEYGDAFQDVEGKPLRPKWIYQGETVAKMQYLESSDDSTAIAMSKNGSLAWFRDEIKVPVHIVQEMMGPATRYSSIHSLTRPGSLAVSDFDVSTNMDTVVKSQSNGYEEDSILKIIDNSDRPGDILRTVHVPGTNVAHSVRFFNNHLFASCSDDNILRFWDTRTADKPLWTLSEPKNGRLTSFDSSQVTENLFVTGFSTGVIKLWDARAVQLATTDLTHRQNGEEPIQNEIAKLFHSGGDSVVDILFSQTSATEFVTVGGTGNVYHWDMEYSFSRNDDDNEDEVRVAAPEELQGQCLKFFHTGGTRRSSNQFGKRNTVALHPVINDFVGTVDSDSLVTAYKPFLASDFIGRGYDD
B4: YJL151C (protein, UniProt P14359 1-133, looked up)
Protein SNA3: MDRDHINDHDHRMSYSINKDDLLLMVLAVFIPPVAVWKRKGMFNRDTLLNLLLFLLLFFPAIIHACYVVYETSSERSYDLSRRHATAPAVDRDLEAHPAEESQAQPPAYDEDDEAGADVPLMDNKQQLSSGRT
B5: YLR258W (protein, UniProt P27472 1-705, looked up)
Glycogen [starch] synthase …: MSRDLQNHLLFETATEVANRVGGIYSVLKSKAPITVAQYKDHYHLIGPLNKATYQNEVDILDWKKPEAFSDEMRPVQHALQTMESRGVHFVYGRWLIEGAPKVILFDLDSVRGYSNEWKGDLWSLVGIPSPENDFETNDAILLGYTVAWFLGEVAHLDSQHAIVAHFHEWLAGVALPLCRKRRIDVVTIFTTHATLLGRYLCASGSFDFYNCLESVDVDHEAGRFGIYHRYCIERAAAHSADVFTTVSQITAFEAEHLLKRKPDGILPNGLNVIKFQAFHEFQNLHALKKEKINDFVRGHFHGCFDFDLDNTLYFFIAGRYEYKNKGADMFIEALARLNYRLKVSGSKKTVVAFIVMPAKNNSFTVEALKGQAEVRALENTVHEVTTSIGKRIFDHAIRYPHNGLTTELPTDLGELLKSSDKVMLKRRILALRRPEGQLPPIVTHNMVDDANDLILNKIRQVQLFNSPSDRVKMIFHPEFLNANNPILGLDYDEFVRGCHLGVFPSYYEPWGYTPAECTVMGVPSITTNVSGFGAYMEDLIETNQAKDYGIYIVDRRFKAPDESVEQLVDYMEEFVKKTRRQRINQRNRTERLSDLLDWKRMGLEYVKARQLALRRGYPDQFRELVGEELNDSNMDALAGGKKLKVARPLSVPGSPRDLRSNSTVYMTPGDLGTLQEVNNADDYFSLGVNPAADDDDDGPYADDS
B6: YNR007C (protein, UniProt P40344 1-310, looked up)
Autophagy-related protein 3: MIRSTLSSWREYLTPITHKSTFLTTGQITPEEFVQAGDYLCHMFPTWKWNEESSDISYRDFLPKNKQFLIIRKVPCDKRAEQCVEVEGPDVIMKGFAEDGDEDDVLEYIGSETEHVQSTPAGGTKDSSIDDIDELIQDMEIKEEDENDDTEEFNAKGGLAKDMAQERYYDLYIAYSTSYRVPKMYIVGFNSNGSPLSPEQMFEDISADYRTKTATIEKLPFYKNSVLSVSIHPCKHANVMKILLDKVRVVRQRRRKELQEEQELDGVGDWEDLQDDIDDSLRVDQYLIVFLKFITSVTPSIQHDYTMEGW
B7: YBL071W-A (protein, UniProt Q3E840 1-82, looked up)
Diphthamide biosynthesis …: MSTYDEIEIEDMTFEPENQMFTYPCPCGDRFQIYLDDMFEGEKVAVCPSCSLMIDVVFDKEDLAEYYEEAGIHPPEPIAAAA

system: ABP1; experiment: DHFR-PCA on solid medium, bait ABP1 (Fig. 1B); assay type: cell-based, Saccharomyces cerevisiae; conditions: bait ABP1, label = prey; 2-4 replicates
Source text: Supplement 41467_2021_21873_MOESM8_ESM.xlsx, sheet "Fig1B" | column: medsize; medrep; Ratio; Score

Molecule	medrep (log2 median colony size normalized to plate background, PCA score)
B1	1.384
B2	1.542
B3	1.855
B4	1.425
B5	1.989
B6	1.566
B7	1.99

same assay, conditions: bait ABP1, label = prey; only significant differences showed; PPIs completely lost have a ratio of 0.1 and the gained PPIs 2.5

Molecule	Ratio (SH3-deleted/WT medrep)
B1	2.5
B2	2.5
B3	2.5
B4	2.5
B5	2.5
B6	2.5
B7	1.369

system: Abp1 PPIs; experiment: DHFR-PCA of Abp1 SH3-swapped baits (Fig. 2B-D, S2C, S2F); assay type: cell-based, Saccharomyces cerevisiae; conditions: Fig2B; bait ABP1, label = prey; Replicates 4
Source text: Having determined that multiple PPIs require SH3s, we asked whether the latter establish PPI specificity independently from their host proteins by swapping domains (Fig. 2A). Using the second round of genome editing, we individually replaced Abp1 SH3 with the 27 yeast SH3s and 3 human Abp1 orthologs’ SH3s (CTTN, HCLS1, and DBNL, Fig. 2B). The reintroduction of its own SH3 (Abp1SH3 in Abp1) reconstitutes almost perfectly Abp1’s interaction profile (Kendall’s τ = 0.93, Fig. 2B). […] No homologous SH3 domain fully re-establishes the normal Abp1 PPI profile (Fig. 2B and Supplementary Fig. 2C). However, we observe a significant correlation (cophenetic correlation = 0.20, p value = 0.005, Fig. 2C) between the similarity of PPI profiles (Fig. 2B) and the sequence similarity of the SH3s. […] Nonetheless, a subset of SH3-dependent PPIs is only observed with the endogenous domain. For instance, Hua2 and App1, both well-characterized partners of Abp1[14],[18],[19], are only detected when Abp1 contains its own SH3 (WT or swapped via editing). A given SH3 may therefore not be fully replaceable with other paralogous or orthologous domains. This pattern is confirmed by cellular growth phenotypic analyses (Supplementary Fig. 2D, E). PPIs, SH3 sequence similarity, and growth profiles under stress conditions are correlated (Supplementary Fig. 2D, E). This relationship is particularly clear when analyzing growth on media supplemented with hygromycin.
The stuffing of YSC84 SH3 rendered the strain sterile and was therefore not used for this study as the assays require crosses. For genes containing two SH3s (BZZ1 and BEM1), a combination of this first stuffer with a second one ([…]) coding for a highly similar linker ([…]) was used, which allowed targeting each SH3 position independently. The two N-terminal domains of SLA1, which are separated by six nucleotides, were stuffed by a single stuffer. Cells containing pCAS were selected via the G418 resistance cassette from the plasmid on YPD plates (YPD + NAT 100 μg/ml (DHFR F[1,2] selection) + G418 200 µg/mL (Bioshop Canada)). Colonies were randomly selected and grown in YPD media without G418 to allow plasmid loss. The correct insertion of the stuffer was validated by PCR and Sanger sequencing. The SH3-swapped, -shuffled, and -mutated strains were constructed following a second CRISPR–Cas9 editing step with the same procedures. The stuffer sequences were targeted by specific gRNAs (one gRNA per stuffer) and replaced by PCR amplified specific SH3 (with 40 bp homology arms) or libraries of mutated SH3 domains for Deep Mutational Scanning (DMS) with 78 bp flanking homology regions. Validation of the SH3 domain insertions was done as we previously described except for DMS libraries (see below).
The overall DHFR-PCA pipeline is based on Tarassov et al.[43] and the procedures have also been published as a visualized protocol. The screens were performed with robotically manipulated pin tools (BM5-SC1, S&P Robotics Inc.). First, the preys were cherry-picked from 96-well plates to omnitrays in a 384 format on YPD + HPH solid media. Plates were then combined into the 1536 format on YPD + HPH. The array was constituted of 575 preys previously shown to interact physically with at least one SH3-containing protein as reported in BioGRID V3.4.16 along with 40 negative controls. The prey array comprised a border of control strains of two rows and two columns corresponding to the PPI between LSM8-DHFR F[1,2] and CDC39-DHFR F[3]. This double border was used to remove border effects. Preys are present in duplicate at a randomized position in the 1536 array (except for YAL041W which is present four times per array). Baits were crossed with two prey plates, resulting in four independent bait–prey tests for each PPI. Baits were grown in liquid YPD + NAT and then transferred on solid YPD + NAT omnitrays. They were then replicated on YPD + NAT omnitrays in 1536 array format. […]

Molecule	medrep (log2 median colony size normalized to plate background)	medsize (median colony size)
B7	1.454	388
